The target in this assay is GST-p65(1-306) (UniProt Q04206 1-306). Briefly: pull-down.
Sequence of GST-p65(1-306) (Q04206 1-306): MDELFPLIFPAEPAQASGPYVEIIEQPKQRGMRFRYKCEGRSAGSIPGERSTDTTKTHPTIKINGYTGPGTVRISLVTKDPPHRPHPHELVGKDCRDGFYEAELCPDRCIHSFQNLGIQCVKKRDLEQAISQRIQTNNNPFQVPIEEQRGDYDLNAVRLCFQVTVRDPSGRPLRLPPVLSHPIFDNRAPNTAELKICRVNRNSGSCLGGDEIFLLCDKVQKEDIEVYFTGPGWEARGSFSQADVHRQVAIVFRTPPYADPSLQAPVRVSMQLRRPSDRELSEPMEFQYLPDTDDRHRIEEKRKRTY

As to GGSSLSY [GGSSLSY peptide], the binding result is reported as “binds”.

For the origin of these results see paper PMC2760979 (Cancer research, 2009).
